For 15 molecules, Enrichment and Kd results are on record in patent US20230142800A1 (COMMISSARIAT A L ENERGIE ATOMIQUE ET AUX ENERGIES …, published 2023).

For assay [1], the target named is T1, biotinylated TNF alpha (human (definition in paragraph 32)); the …, UniProt P01375 77-233, biotinylated (site not stated)).
T1 construct: Used for FACS sorting of yeast libraries and immobilised on streptavidin sensors for BLI; also called TNFα; Tumor Necrosis Factor Alpha
The experiment in a line: yeast display FACS sorting on biotinylated TNF alpha, NGS enrichment, CDRH2 library.

Assay [2] deals with T1, biotinylated TNF alpha. Description: BLI (Octet Red96), Fab in solution, biotinylated TNF alpha on streptavidin sensors, 1:1 global fit. On the procedure:
After saturation the sensors in a blocking solution containing 10 μg/mL biotin (Sigma-Aldrich, Saint-Louis, United States), the association and dissociation are measured over 20 and 40 minutes respectively. […] During the analysis, the reference is subtracted from each curve and a 1:1 global Langmuir model is applied in order to get the affinity parameters.
In general terms: Biolayer interferometry detects binding as a change in optical thickness at a sensor tip.

Assay [3] has as its target T1, biotinylated TNF alpha. Description: yeast display FACS sorting on biotinylated TNF alpha, NGS enrichment, CDRH2-CDRH3 library.

T1 sequence (P01375 77-233 limits assumed): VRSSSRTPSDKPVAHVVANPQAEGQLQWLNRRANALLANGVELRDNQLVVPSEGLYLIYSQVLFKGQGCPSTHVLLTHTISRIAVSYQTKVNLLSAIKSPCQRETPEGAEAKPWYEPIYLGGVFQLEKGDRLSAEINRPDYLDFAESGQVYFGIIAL

B1: CDRH2 library mutant SAINWNGGHR (Fab, V domains shown)
VH: EVQLVESGGGLVQPGRSLRLSCAASGFTFDDYAMHWVRQAPGKGLEWVSAINWNGGHRDYADSVEGRFTISRDNAKNSLYLQMNSLRAEDTAVYYCAKVSYLSTASSLDYWGQGTLVTVSS
VL: not shown
In turn, B1 came in with an Enrichment with biotinylated TNF alpha [1] of 79.

B2: CDRH2 library mutant SSIAWNGGHW (Fab, V domains shown)
VH: EVQLVESGGGLVQPGRSLRLSCAASGFTFDDYAMHWVRQAPGKGLEWVSSIAWNGGHWDYADSVEGRFTISRDNAKNSLYLQMNSLRAEDTAVYYCAKVSYLSTASSLDYWGQGTLVTVSS
VL: not shown
In the assay with biotinylated TNF alpha [1], B2 returned an Enrichment of 128.

B3: Mutant 5, Fab format (Fab, V domains shown)
VH: EVQLVESGGGLVQPGRSLRLSCAASGFTFDDYAMHWVRQAPGKGLEWVGDISWNGGHTDYADSVEGRFTISRDNAKNSLYLQMNSLRAEDTAVYYCAKTTYLPTASSLDYWGQGTLVTVSS
VL: not shown
notes: Soluble Fab as for Mutant 1; also called mutation 5
By Kd is commonly meant the equilibrium constant for the complex coming apart. Low readings indicate a tighter complex, high ones a looser complex. B3 gave a Kd in the assay with biotinylated TNF alpha [2] of 9 pM.

B4: Mutant 6, Fab displayed on yeast (CDRH2-CDRH3 combinatorial library) (Fab, V domains shown)
VH: EVQLVESGGGLVQPGRSLRLSCAASGFTFDDYAMHWVRQAPGKGLEWVGAINWNGGHRDYADSVEGRFTISRDNAKNSLYLQMNSLRAEDTAVYYCAKTNYLPTASSLDYWGQGTLVTVSS
VL: not shown
notes: same variable domains as the soluble Mutant 6 Fab; see its note
B4 had an Enrichment with biotinylated TNF alpha [3] of 238000.

B5: Mutant 7, Fab displayed on yeast (CDRH2-CDRH3 combinatorial library) (Fab, V domains shown)
VH: EVQLVESGGGLVQPGRSLRLSCAASGFTFDDYAMHWVRQAPGKGLEWVGAINWNGGHRDYADSVEGRFTISRDNAKNSLYLQMNSLRAEDTAVYYCAKAHYLPTASSLDYWGQGTLVTVSS
VL: not shown
notes: same variable domains as the soluble Mutant 7 Fab; see its note
Turning to B5, in the assay with biotinylated TNF alpha [3], the Enrichment worked out at 59400.

B6: Mutant 3, Fab displayed on yeast (CDRH2-CDRH3 combinatorial library) (Fab, V domains shown)
VH: EVQLVESGGGLVQPGRSLRLSCAASGFTFDDYAMHWVRQAPGKGLEWVGAINWNGGHHDYADSVEGRFTISRDNAKNSLYLQMNSLRAEDTAVYYCAKTTYLPTASSLDYWGQGTLVTVSS
VL: not shown
notes: same variable domains as the soluble Mutant 3 Fab; see its note
Take B6: the Enrichment with biotinylated TNF alpha [3] was found to be 111000.

B7: CDRH2 library mutant SAISWNGGHT (Fab, V domains shown)
VH: EVQLVESGGGLVQPGRSLRLSCAASGFTFDDYAMHWVRQAPGKGLEWVSAISWNGGHTDYADSVEGRFTISRDNAKNSLYLQMNSLRAEDTAVYYCAKVSYLSTASSLDYWGQGTLVTVSS
VL: not shown
In the assay with biotinylated TNF alpha [1], B7 yielded an Enrichment of 100.

B8: CDRH2 library mutant SAISWNGGHR (Fab, V domains shown)
VH: EVQLVESGGGLVQPGRSLRLSCAASGFTFDDYAMHWVRQAPGKGLEWVSAISWNGGHRDYADSVEGRFTISRDNAKNSLYLQMNSLRAEDTAVYYCAKVSYLSTASSLDYWGQGTLVTVSS
VL: not shown
Turning to B8, the Enrichment with biotinylated TNF alpha [1] came to 207.

B9: CDRH2 library mutant SAISWNGGHQ (Fab, V domains shown)
VH: EVQLVESGGGLVQPGRSLRLSCAASGFTFDDYAMHWVRQAPGKGLEWVSAISWNGGHQDYADSVEGRFTISRDNAKNSLYLQMNSLRAEDTAVYYCAKVSYLSTASSLDYWGQGTLVTVSS
VL: not shown
B9 gave an Enrichment with biotinylated TNF alpha [1] of 104.

B10: Mutant 4, Fab displayed on yeast (CDRH2-CDRH3 combinatorial library) (Fab, V domains shown)
VH: EVQLVESGGGLVQPGRSLRLSCAASGFTFDDYAMHWVRQAPGKGLEWVGAINWNSGHHDYADSVEGRFTISRDNAKNSLYLQMNSLRAEDTAVYYCAKTTYLPTASSLDYWGQGTLVTVSS
VL: not shown
notes: same variable domains as the soluble Mutant 4 Fab; see its note
As for B10, in the assay with biotinylated TNF alpha [3], the Enrichment came to 186000.

B11: Mutant 2, Fab displayed on yeast (CDRH2-CDRH3 combinatorial library) (Fab, V domains shown)
VH: EVQLVESGGGLVQPGRSLRLSCAASGFTFDDYAMHWVRQAPGKGLEWVGTINWNGGHSDYADSVEGRFTISRDNAKNSLYLQMNSLRAEDTAVYYCAKTTYLPTASSLDYWGQGTLVTVSS
VL: not shown
notes: same variable domains as the soluble Mutant 2 Fab; see its note
B11 gave an Enrichment with biotinylated TNF alpha [3] of 1.47e+06.

B12: Mutant 8, Fab displayed on yeast (CDRH2-CDRH3 combinatorial library) (Fab, V domains shown)
VH: EVQLVESGGGLVQPGRSLRLSCAASGFTFDDYAMHWVRQAPGKGLEWVGAINWNGGHRDYADSVEGRFTISRDNAKNSLYLQMNSLRAEDTALYYCAKTTYLPTASSLDYWGQGTLVTVSS
VL: not shown
notes: same variable domains as the soluble Mutant 8 Fab; see its note
B12: the Enrichment with biotinylated TNF alpha [3] turned out to be 238000.

B13: CDRH2 library mutant SAISWNGGHH (Fab, V domains shown)
VH: EVQLVESGGGLVQPGRSLRLSCAASGFTFDDYAMHWVRQAPGKGLEWVSAISWNGGHHDYADSVEGRFTISRDNAKNSLYLQMNSLRAEDTAVYYCAKVSYLSTASSLDYWGQGTLVTVSS
VL: not shown
B13 came in with an Enrichment in the assay with biotinylated TNF alpha [1] of 87.

B14: Mutant 5, Fab displayed on yeast (CDRH2-CDRH3 combinatorial library) (Fab, V domains shown)
VH: EVQLVESGGGLVQPGRSLRLSCAASGFTFDDYAMHWVRQAPGKGLEWVGDISWNGGHTDYADSVEGRFTISRDNAKNSLYLQMNSLRAEDTAVYYCAKTTYLPTASSLDYWGQGTLVTVSS
VL: not shown
notes: same variable domains as the soluble Mutant 5 Fab; see its note
The molecule B14 returned an Enrichment with biotinylated TNF alpha [3] of 512000.

B15: Mutant 1, Fab displayed on yeast (CDRH2-CDRH3 combinatorial library) (Fab, V domains shown)
VH: EVQLVESGGGLVQPGRSLRLSCAASGFTFDDYAMHWVRQAPGKGLEWVGAINWNGGHRDYADSVEGRFTISRDNAKNSLYLQMNSLRAEDTAVYYCAKSQYLPTASSLDYWGQGTLVTVSS
VL: not shown
notes: same variable domains as the soluble Mutant 1 Fab; see its note
B15 yielded an Enrichment with biotinylated TNF alpha [3] of 217000.
